# T1: GST-TβRI intracellular domain fusion protein
# T1 chain: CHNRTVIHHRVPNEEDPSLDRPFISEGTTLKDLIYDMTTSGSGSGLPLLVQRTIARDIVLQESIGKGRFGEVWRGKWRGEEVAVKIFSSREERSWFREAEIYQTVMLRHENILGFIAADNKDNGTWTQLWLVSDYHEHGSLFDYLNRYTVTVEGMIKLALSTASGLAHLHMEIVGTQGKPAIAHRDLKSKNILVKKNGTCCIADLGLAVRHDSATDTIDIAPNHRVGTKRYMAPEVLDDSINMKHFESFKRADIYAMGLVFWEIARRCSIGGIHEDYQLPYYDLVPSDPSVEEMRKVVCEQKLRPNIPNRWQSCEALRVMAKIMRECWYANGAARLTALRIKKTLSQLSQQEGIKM
# T2: type I receptor of transforming growth factor beta (TβRI), endogenous, full length
# T2 chain: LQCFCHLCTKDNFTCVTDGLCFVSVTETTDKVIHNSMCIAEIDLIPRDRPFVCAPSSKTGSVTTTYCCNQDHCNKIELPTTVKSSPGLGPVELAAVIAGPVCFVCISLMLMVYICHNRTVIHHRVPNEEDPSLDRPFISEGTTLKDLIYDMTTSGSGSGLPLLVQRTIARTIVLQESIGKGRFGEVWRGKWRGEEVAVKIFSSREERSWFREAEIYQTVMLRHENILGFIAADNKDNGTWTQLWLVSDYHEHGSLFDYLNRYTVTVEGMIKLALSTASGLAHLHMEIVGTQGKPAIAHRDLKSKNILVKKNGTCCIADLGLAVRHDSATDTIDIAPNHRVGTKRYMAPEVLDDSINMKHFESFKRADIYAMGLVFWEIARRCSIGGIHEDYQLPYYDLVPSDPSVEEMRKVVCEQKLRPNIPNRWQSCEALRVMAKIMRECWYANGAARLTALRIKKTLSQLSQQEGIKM
# B1: recombinant glutathione-S-transferase-tagged TRAF6 (GST-TRAF6) fusion protein (protein)
# chain: MSLLNCENSCGSSQSESDCCVAMASSCSAVTKDDSVGGTASTGNLSSSFMEEIQGYDVEFDPPLESKYECPICLMALREAVQTPCGHRFCKACIIKSIRDAGHKCPVDNEILLENQLFPDNFAKREILSLMVKCPNEGCLHKMELRHLEDHQAHCEFALMDCPQCQRPFQKFHINIHILKDCPRRQVSCDNCAASMAFEDKEIHDQNCPLANVICEYCNTILIREQMPNHYDLDCPTAPIPCTFSTFGCHEKMQRNHLARHLQENTQSHMRMLAQAVHSLSVIPDSGYISEVRNFQETIHQLEGRLVRQDHQIRELTAKMETQSMYVSELKRTIRTLEDKVAEIEAQQCNGIYIWKIGNFGMHLKCQEEEKPVVIHSPGFYTGKPGYKLCMRLHLQLPTAQRCANYISLFVHTMQGEYDSHLPWPFQGTIRLTILDQSEAPVRQNHEEIMDAKPELLAFQRPTIPRNPKGFGYVTFMHLEALRQRTFIKDDTLLVRCEVSTRFDMGSLRREGFQPRSTDAGV
# B2: tumor necrosis factor receptor-associated factor 6 (TRAF6), endogenous (protein)
# chain: B1 chain
# Legend:
# [1] = molecular target: T1, GST-TβRI intracellular domain fusion …
# [2] = molecular target: T2, type I receptor of transforming growth …
Protein,polyubiquitination of TβRI in an in vitro ubiquitination assay [1],Lys63-linked polyubiquitination of TβRI and formation of the TβRI ICD after TRAF6 siRNA [2]
B1,TRAF6 was shown to induce the polyubiquitination of TβRI in an in vitro ubiquitination assay,
B2,,a knock-down of endogenous TRAF6 in PC-3U cells with an anti-TRAF6 siRNA also resulted in loss of both Lys63-linked polyubiquitination in TβRI and the formation of the TβRI ICD in response to TGFβ stimulation
